B2: GST-Sec23 (natural protein, S. cerevisiae)
chain: MDFETNEDINGVRFTWNVFPSTRSDANSNVVPVGCLYTPLKEYDELNVAPYNPVVCSGPHCKSILNPYCVIDPRNSSWSCPICNSRNHLPPQYTNLSQENMPLELQSTTIEYITNKPVTVPPIFFFVVDLTSETENLDSLKESIITSLSLLPPNALIGLITYGNVVQLHDLSSETIDRCNVFRGDREYQLEALTEMLTGQKPTGPGGAASHLPNAMNKVTPFSLNRFFLPLEQVEFKLNQLLENLSPDQWSVPAGHRPLRATGSALNIASLLLQGCYKNIPARIILFASGPGTVAPGLIVNSELKDPLRSHHDIDSDHAQHYKKACKFYNQIAQRVAANGHTVDIFAGCYDQIGMSEMKQLTDSTGGVLLLTDAFSTAIFKQSYLRLFAKDEEGYLKMAFNGNMAVKTSKDLKVQGLIGHASAVKKTDANNISESEIGIGATSTWKMASLSPYHSYAIFFEIANTAANSNPMMSAPGSADRPHLAYTQFITTYQHSSGTNRIRVTTVANQLLPFGTPAIAASFDQEAAAVLMARIAVHKAETDDGADVIRWLDRTLIKLCQKYADYNKDDPQSFRLAPNFSLYPQFTYYLRRSQFLSVFNNSPDETAFYRHIFTREDTTNSLIMIQPTLTSFSMEDDPQPVLLDSISVKPNTILLLDTFFFILIYHGEQIAQWRKAGYQDDPQYADFKALLEEPKLEAAELLVDRFPLPRFIDTEAGGSQARFLLSKLNPSDNYQDMARGGSTIVLTDDVSLQNFMTHLQQVAVSGQA

For the assay “GST-Sec23”, the target named is B2. The assay is described as follows: pull-down.
Assay [1] deals with Sec13/Sec31 outer coat complex (wild type, His tag removed) (S. cerevisiae, UniProt Q04491 1-297; P38968 1-1273). The assay is described as follows: pull-down.
Chain of Sec13/Sec31 outer coat complex (wild type, His tag removed) (Q04491 whole entry, chain 1 of 2): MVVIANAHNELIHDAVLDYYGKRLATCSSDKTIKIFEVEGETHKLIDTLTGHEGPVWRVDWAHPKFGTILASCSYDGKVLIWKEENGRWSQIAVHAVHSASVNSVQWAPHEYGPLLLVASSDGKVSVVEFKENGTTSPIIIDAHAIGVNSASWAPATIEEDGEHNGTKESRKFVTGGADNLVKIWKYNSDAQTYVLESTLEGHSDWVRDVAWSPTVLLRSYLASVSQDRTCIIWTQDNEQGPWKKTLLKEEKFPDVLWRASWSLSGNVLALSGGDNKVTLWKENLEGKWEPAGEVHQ
Chain of Sec13/Sec31 outer coat complex (wild type, His tag removed) (P38968 whole entry, chain 2 of 2): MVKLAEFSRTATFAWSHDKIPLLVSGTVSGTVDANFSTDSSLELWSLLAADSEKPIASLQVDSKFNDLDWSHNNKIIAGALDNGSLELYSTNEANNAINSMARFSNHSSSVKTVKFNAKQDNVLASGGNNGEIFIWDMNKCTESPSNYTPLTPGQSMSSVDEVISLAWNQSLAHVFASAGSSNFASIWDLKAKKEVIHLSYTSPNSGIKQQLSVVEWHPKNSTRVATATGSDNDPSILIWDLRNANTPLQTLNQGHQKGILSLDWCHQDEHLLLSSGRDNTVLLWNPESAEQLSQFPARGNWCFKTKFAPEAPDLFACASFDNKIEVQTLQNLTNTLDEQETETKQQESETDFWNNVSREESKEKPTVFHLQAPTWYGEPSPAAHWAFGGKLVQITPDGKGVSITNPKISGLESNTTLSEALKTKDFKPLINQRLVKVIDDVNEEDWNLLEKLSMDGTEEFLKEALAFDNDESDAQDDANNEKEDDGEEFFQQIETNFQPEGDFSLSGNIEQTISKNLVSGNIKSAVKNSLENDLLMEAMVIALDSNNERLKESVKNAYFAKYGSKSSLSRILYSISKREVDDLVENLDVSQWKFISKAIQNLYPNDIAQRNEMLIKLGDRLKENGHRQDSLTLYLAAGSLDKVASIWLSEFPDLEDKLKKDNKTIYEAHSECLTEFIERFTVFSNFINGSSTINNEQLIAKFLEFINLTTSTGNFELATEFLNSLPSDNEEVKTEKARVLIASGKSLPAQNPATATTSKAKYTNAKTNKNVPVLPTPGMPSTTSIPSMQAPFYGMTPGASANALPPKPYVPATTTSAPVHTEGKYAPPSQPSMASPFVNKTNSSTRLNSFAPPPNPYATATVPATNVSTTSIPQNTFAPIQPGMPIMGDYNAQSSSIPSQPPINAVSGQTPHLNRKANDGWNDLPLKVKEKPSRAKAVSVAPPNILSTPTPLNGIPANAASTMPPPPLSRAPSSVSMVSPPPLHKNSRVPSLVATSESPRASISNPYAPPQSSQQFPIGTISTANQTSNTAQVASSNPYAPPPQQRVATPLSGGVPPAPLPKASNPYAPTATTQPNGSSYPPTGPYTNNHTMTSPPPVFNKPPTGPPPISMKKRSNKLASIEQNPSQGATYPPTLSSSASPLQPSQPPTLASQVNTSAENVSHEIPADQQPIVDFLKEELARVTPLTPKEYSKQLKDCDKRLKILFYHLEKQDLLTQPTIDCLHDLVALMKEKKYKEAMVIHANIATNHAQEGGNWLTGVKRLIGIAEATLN

The values that follow come from article doi:10.1101/2020.04.15.043356 (bioRxiv, 2020).

B1: 6xHis-Grh1 (natural protein, S. cerevisiae, UniProt Q04410 1-372, looked up)
chain: MFRIAKNLVRTFEQSVQDTLALSQDSSNLDAFFQSIPPNLLSAQLESPVDAVSEGVKHTNVNETLSGLRIVWVDEMQFQLQSFFDYIVGFNDDPVPVVSNQHGFSYPDYRRITSIFNEHCGRTLKVNIWSAKGGTFRDEYISIISKESDDLDDVSLNHDERRPSSGEAHQFQALGFKVQWTPLIASTFTYHILNVNIPDGPAQSAGLIPDEDYIIGCQDGLLATGGETLLQDIVRSRANYDLVLYVYNKVSDCVRPITVHIGPDGRLGCNVGYGFLHRIPTVKHCPQQAQQQGQDDNPVPVPVPVESETAFVPSAFTAPPVPTKKKSKNKKGTQPLAMDDYFNEGRDKSSTAAKSAESDILAPPPQKQSSSD
As for B1, the binding result with GST-Sec23 is given as “binds”.

For B2, the binding result in assay [1] was “binds”.
